From publication doi:10.1101/2021.02.17.431757 (bioRxiv, 2021) come the findings set out here.

This test addresses GST-TopBP1 (aa 32-1522) His, recombinant (UniProt Q92547 32-1522). The test can be described thus: pull-down.

Sequence of GST-TopBP1 (aa 32-1522) His, recombinant (Q92547 32-1522): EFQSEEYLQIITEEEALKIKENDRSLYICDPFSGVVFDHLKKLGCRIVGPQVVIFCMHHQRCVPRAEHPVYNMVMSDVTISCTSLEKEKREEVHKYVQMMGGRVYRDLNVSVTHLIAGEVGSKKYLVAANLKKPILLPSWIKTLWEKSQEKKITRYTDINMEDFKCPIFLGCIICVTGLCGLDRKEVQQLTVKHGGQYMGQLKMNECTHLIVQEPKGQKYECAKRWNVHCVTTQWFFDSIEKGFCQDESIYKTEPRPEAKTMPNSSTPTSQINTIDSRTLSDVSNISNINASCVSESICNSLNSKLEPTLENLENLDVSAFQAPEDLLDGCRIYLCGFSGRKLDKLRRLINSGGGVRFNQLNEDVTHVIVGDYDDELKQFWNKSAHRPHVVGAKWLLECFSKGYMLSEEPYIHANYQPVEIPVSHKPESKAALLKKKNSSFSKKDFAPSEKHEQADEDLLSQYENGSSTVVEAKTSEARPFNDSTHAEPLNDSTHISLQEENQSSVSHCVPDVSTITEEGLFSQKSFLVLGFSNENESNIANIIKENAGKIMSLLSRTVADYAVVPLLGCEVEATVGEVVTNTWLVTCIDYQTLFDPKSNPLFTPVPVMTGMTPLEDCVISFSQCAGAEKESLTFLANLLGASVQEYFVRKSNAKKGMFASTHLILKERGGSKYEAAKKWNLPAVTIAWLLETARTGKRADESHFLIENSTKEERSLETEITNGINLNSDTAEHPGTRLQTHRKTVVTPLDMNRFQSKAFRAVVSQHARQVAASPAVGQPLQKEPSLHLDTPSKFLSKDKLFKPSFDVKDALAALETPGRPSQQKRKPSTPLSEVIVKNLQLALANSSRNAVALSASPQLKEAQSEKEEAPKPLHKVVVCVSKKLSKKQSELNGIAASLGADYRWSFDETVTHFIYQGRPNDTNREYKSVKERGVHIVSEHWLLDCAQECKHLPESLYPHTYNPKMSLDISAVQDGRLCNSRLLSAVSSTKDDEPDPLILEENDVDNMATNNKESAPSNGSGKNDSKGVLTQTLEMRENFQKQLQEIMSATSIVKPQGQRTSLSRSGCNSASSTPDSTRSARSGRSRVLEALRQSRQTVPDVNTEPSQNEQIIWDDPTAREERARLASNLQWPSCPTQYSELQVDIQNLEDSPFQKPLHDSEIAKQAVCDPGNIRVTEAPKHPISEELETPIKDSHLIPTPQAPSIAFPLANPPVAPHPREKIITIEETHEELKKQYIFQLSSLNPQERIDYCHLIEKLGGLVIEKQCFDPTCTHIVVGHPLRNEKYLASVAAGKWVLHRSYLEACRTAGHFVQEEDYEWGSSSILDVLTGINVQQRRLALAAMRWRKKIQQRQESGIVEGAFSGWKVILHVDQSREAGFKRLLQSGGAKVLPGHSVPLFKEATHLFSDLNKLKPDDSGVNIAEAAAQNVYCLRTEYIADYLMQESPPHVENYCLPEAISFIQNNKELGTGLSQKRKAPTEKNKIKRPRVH

B1: His-E2-S23D (amino acids 1-200), recombinant (domain or fragment, human papillomavirus 16 (HPV16), UniProt P03120 1-200, looked up)
chain: METLCQRLNVCQDKILTHYENDDTDLRDHIDYWKHMRLECAIYYKAREMGFKHINHQVVPTLAVSKNKALQAIELQLTLETIYNSQYSNEKWTLQDVSLEVYLTAPTGCIKKHGYTVEVQFDGDICNTMHYTNWTHIYICEEASVTVVEGQVDYYGLYYVHEGIRTYFVQFKDDAEKYSKNKVWEVHAGGQVILCPTSVF
Turning to B1, the binding result is reported as “binds”.
